Legend:
[1] = molecular target: biotin-hBA2 binding to hTie-2 (Homo sapiens, UniProt O15123); assay: ELISA blocking of biotinylated hBA2 binding to hTie-2-His; type: biochemical; details: 20 pM biotinylated hBA2; average of two separate experiments; read-out: Biotin - hBA2 Average IC50
Procedure: For this experiment, human Tie-2 conjugated to a histidine tag (hTie-2-His; SEQ ID NO:526) was used in a similar fashion to the hTie-2-mFc described above. Antibody concentrations from 5 nM were serially diluted three-fold. […] An average IC50 value for each antibody was calculated based on two separate experiments.

[2] = test system: Tie-2 phosphorylation (Ang-2-mediated) in HUVECs; assay: Inhibition of Ang-2-mediated Tie-2 phosphorylation in FOXO1-adenovirus infected HUVECs; type: cell-based, human; details: antibody 0.5 μg/ml
Procedure: Further, the inventors have shown that infection of HUVECs with an adenovirus encoding FOXO1 results in expression and secretion of Ang-2, followed by activation of Tie-2 phosphorylation (Daly et al. 2006 PNAS 103:15491).
Anti-Ang-2 antibodies were tested for their ability to inhibit Tie-2 phosphorylation. Briefly, 7×10^5 HUVECs (Vec Technologies, Rensselaer, N.Y.) were plated in 6 cm cell culture dishes in 3.5 ml of MCDB131 Complete medium (Vec Technologies, Rensselaer, N.Y.). The following day, the cells were washed with Opti-MEM (Invitrogen Corp., Carlsbad, Calif.) and fed with 2 ml of Opti-MEM. […] Cells were then washed with MCDB131 and fed with 2 ml of MCDB131 containing anti-Ang-2 antibodies at a concentration of 0.5 μg/ml. At twenty hours post infection, cells were lysed and subjected to Tie-2 immunoprecipitation as described by Daly et al., Proc. Natl. Acad. Sci. USA 103:15491-15496 (2006). Immunoglobulin was collected on protein A/G beads (Santa Cruz Biotechnology, Santa Cruz, Calif.) for one hour. Beads were washed with cold lysis buffer and resuspended in SDS sample buffer for analysis by western blot with antibodies specific for phosphotyrosine (Millipore, Billerica, Mass.) or Tie-2. Signals were detected using HRP-conjugated secondary antibodies and ECL reagents (GE Healthcare, Piscataway, N.J.). X-Ray films were scanned and the phospho-Tie-2 and Tie-2 signals were quantified using ImageJ software. The phospho-Tie-2/Tie-2 ratios were used to determine the % inhibition for each anti-Ang-2 antibody (i.e. Percent inhibition=Reduction in phospho-Tie-2/Tie-2 as compared to control).

Chain of biotin-hBA2 binding to hTie-2 (O15123 with tags, fused parts or gaps): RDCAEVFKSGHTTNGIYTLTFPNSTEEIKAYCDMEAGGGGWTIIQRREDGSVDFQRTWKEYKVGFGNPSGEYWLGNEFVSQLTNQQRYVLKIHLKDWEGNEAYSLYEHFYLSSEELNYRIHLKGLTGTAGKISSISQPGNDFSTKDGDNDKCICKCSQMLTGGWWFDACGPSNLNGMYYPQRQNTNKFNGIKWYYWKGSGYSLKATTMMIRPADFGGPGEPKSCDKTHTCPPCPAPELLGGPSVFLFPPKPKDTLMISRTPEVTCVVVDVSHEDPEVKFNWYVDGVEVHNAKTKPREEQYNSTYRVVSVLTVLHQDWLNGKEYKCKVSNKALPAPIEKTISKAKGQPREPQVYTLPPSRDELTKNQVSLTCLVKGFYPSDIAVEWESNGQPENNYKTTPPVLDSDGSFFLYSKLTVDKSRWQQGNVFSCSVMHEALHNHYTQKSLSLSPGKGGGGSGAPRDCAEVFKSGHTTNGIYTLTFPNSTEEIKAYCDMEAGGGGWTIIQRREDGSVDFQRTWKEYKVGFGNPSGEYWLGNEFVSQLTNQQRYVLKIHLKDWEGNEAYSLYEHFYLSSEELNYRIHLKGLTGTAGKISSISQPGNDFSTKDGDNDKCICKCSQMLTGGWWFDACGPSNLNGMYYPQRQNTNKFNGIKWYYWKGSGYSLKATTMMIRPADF

B1: H1M728N: anti-Ang-2 antibody, HCVR/LCVR SEQ ID NOs 290/298 (antibody, V domains shown)
VH: EVQLVESGGDLVQPGGSLRLSCTASGFTFSKYWMTWVRQAPGRGLEWVANIKEDGNEKYFLDSVKGRFTISRDNAKDLLFLQMNSLRGEDTAVYYCVRDRGIEVAGPFDYWGQGTLVTVSS
VL: DIQMTQSPSTLSASVGDRVTVTCRASQTIINWLAWYQQKPGKAPKLLISKASSLESGVPSRFSGSGSGTEFTLTISSLQPDDFATYYCQQYNRYWTFGQGTMVEIK
IC50 [1]: 0.0141 nM | Inhibition of Tie-2 phosphorylation [2]: ++ (50-75%)

Source: patent US9926369B2, “Methods for treating hepatocellular cancer by administering an anti-Ang-2 antibody” (Regeneron Pharmaceuticals, Inc., priority 2009, dated 2018)
